Measurements taken from patent publication US20150174221A1.

Assays:
ADAMTS-4 (human) = ADAMTS-4 (human) (UniProt O75173); assay: cell-based or functional assay
ADAMTS-5 (human) = ADAMTS-5 (human) (UniProt Q9UNA0); assay: cell-based or functional assay
UniProt Q9UNA0, sequence (Q9UNA0 262-622 limits assumed): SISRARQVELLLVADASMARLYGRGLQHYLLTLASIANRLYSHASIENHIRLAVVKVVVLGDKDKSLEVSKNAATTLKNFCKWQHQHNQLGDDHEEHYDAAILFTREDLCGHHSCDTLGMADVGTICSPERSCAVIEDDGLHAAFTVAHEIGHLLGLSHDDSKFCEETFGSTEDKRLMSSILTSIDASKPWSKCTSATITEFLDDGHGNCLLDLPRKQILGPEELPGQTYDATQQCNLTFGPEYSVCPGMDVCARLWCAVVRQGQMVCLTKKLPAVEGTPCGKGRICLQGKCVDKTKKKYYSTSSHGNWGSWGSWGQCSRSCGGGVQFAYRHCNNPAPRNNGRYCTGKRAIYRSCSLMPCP

UniProt O75173, sequence (O75173 213-685 limits assumed): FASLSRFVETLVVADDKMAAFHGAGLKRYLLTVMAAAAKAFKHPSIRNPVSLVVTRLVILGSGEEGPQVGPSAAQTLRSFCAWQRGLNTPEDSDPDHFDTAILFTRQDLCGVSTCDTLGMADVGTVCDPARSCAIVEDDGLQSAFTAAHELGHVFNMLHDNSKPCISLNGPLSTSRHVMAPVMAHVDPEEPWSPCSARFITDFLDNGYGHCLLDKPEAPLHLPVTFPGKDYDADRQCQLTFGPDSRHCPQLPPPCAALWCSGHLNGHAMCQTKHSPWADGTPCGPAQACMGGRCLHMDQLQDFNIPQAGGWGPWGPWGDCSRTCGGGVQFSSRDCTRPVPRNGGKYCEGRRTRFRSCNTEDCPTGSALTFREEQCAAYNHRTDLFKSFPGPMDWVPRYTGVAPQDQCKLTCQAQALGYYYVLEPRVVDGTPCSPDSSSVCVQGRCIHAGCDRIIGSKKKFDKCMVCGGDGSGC

**Q.** “purified human A2M (alpha-2-macroglobulin) (from UniProt P01023 24-1474)” was tested. Which IC50 needed to inhibit cartilage catabolism by the protease (ADAMTS-4 (human)) did it give?
**A.** 3 µg/mL

**Q.** And the IC50 for inhibiting cartilage catabolism of bovine cartilage explants by 500 ng/ml ADAMTS-5 (ADAMTS-5 (human))?
**A.** 7 µg/mL

**Q.** And the IC50 needed to inhibit cartilage catabolism by the protease (ADAMTS-5 (human))?
**A.** 7 µg/mL

**Q.** What about the Maximum inhibition of ADAMTS-5-induced cartilage catabolism (ADAMTS-5 (human)) of the same substance?
**A.** 90%
